Tested on: T regulatory phenotype cells
Design: species or system non-human primate
Conditions: in vivo

B1: daclizumab (antibody, chains of the INN, looked up, V domains shown)
VH: QVQLVQSGAEVKKPGSSVKVSCKASGYTFTSYRMHWVRQAPGQGLEWIGYINPSTGYTEYNQKFKDKATITADESTNTAYMELSSLRSEDTAVYYCARGGGVFDYWGQGTLVTVSS
VL: DIQMTQSPSTLSASVGDRVTITCSASSSISYMHWYQQKPGKAPKLLIYTTSNLASGVPARFSGSGSGTEFTLTISSLQPDDFATYYCHQRSTYPLTFGQGTKVEVK
Question: B1 was tested. Which “time of maximum depletion in % and number of T regulatory phenotype cells” value did it give?
Answer: 2 weeks

Question: And the “time until which depletion of T regulatory phenotype cells lasted” value?
Answer: 4 weeks

Source: patent US20080085261A1, “Vaccine Adjuvant” (priority 2004, published 2008)
